Article PMC5809584, “Plastic roles of phenylalanine and tyrosine residues of TLS/FUS in complex formation with the G-quadruplexes of telomeric DNA and TERRA”

Target: RGG3 of TLS/FUS (UniProt P35637 454-526)
Assay: NMR CSP; equivalent amount, 50 mM KCl; NMR: 20 mM K-phosphate pH 6.2, 50 mM KCl, 1 mM DTT, 0.1 mM DSS, 5% D2O, 298 K; FA: 20 C (nucleic acids annealed in 20 mM K-phosphate pH 6.2, 50 mM KCl); EMSA: 50 mM Tris-HCl pH 7.5, 100 mM KCl, 0.5 mM EDTA, 0.5 mM DTT, 0.2 mg/mL BSA, 1 ug/mL calf thymus DNA, 20 C
Details: protein: recombinant; tags: GST removed with PreScission; residual GST-vector residues at N-terminus; G4, heterogeneous

Sequence of RGG3 of TLS/FUS (P35637 454-526): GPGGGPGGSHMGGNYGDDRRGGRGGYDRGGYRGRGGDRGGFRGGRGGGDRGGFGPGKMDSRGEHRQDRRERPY

**Q.** Does UUAGGGUUAGGGUUAGGGUUAGGG (structured_RNA) [TERRA24] bind?
**A.** binds
